According to paper PMC3585816:

What was measured:
[1] = test system: Iron regulatory protein 1 (rIRP1); assay: EMSA; conditions: aminoallyl-UTP-ATTO-680 incorporated in the labeled probe; competitor unmodified; 100 ng probe heated 3 min at 95 C, 120 ng His-IRP, 15 min room temperature, then 50 ug sodium heparin 10 min; 5% native acrylamide gel, 1x TBE; binding buffer …
[2] = test system: Iron regulatory protein 2 (rIRP2); assay: EMSA; conditions: aminoallyl-UTP-ATTO-680 incorporated in the labeled probe; competitor unmodified; 100 ng probe heated 3 min at 95 C, 120 ng His-IRP, 15 min room temperature, then 50 ug sodium heparin 10 min; 5% native acrylamide gel, 1x TBE; binding buffer …

Substance: FTL IRE WT
- binding signal (% of WT signal) [1]: 100
- binding signal (% of WT signal) [2]: 100
